Test results: publication PMC10336005, “Architectural basis for cylindrical self-assembly governing Plk4-mediated centriole duplication in human cells” (Communications Biology, 2023)
Where a chain is given by its changes, count along the chain named. In names and notes the source's numbering stands.

Assays:
[1] = biological target: Cep63 (424–541)•Cep152 (1205–1295) heterotetrameric complex (human) (UniProt O94986); assay: AUC; sedimentation equilibrium, 4 °C, pH 5.5 (150 mM NaCl, 50 mM citric acid/sodium citrate, 1 mM TCEP, 5% glycerol); 12.6, 25 and 55 µM fitted globally; reversible tetramer–octamer–hexadecamer model (heterotetramer to octamer, octamer to hexadecamer)
[2] = biological target: His-Cep63 (424–541) (human); assay: AUC; sedimentation velocity, 50,000 rpm, 4 °C, 150 mM NaCl, 20 mM Tris pH 8.0, 0.5 mM TCEP, 5% glycerol
[3] = biological target: the molecule itself; assay: SEC-MALS; Cep63 (440–490), Wyatt SEC-MALS system
[4] = biological target: the molecule itself; assay: SEC; SEC elution of Cep63 (440–490) triple mutants (Supplementary Fig. 3d)
Cep152 (1205–1295) = biological target: T1, Cep152 (1205–1295) (human, UniProt O94986-3 1205-1295); assay: heterotetramer formation (2:2), iSCAMS; printed as <~60 nM
T1 chain: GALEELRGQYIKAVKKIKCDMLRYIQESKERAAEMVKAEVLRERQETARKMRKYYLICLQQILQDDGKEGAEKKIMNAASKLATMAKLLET

Molecule “Cep63 (424–541)•Cep152 (1205–1295) heterotetrameric complex (from UniProt O94986-3 1205-1295)” has a Kd, octamer–octamer interaction (octamer–hexadecamer step) [1] of 2.2 µM, a Kd, tetramer–tetramer interaction (tetramer–octamer step) [1] of 370 µM and a k16 (dissociation constant of the hexadecamer into four tetramers, c4^4/c16) [1] of 3e-13 M^3. The stoichiometry N (heterotetramers in the oligomer) [1] was 4.

B1: Cep152 (1205–1295) (domain or fragment)
chain: T1 chain
B1 showed a stoichiometry N (Cep63:Cep152 ratio (2:2)) [2] of 1.

B2: Cep63 (440–490) (domain or fragment, human, UniProt Q96MT8 440-490, looked up)
chain: DMEKRLRAEMQKAEDKAVEHKEILDQLESLKLENRHLSEMVMKLELGLHEA
notes: Cep63, human, residues 440–490; The structure was phased by SAD; also called Cep63 (440–490) WT; Cep63 (440–490) dimer; source: E. coli BL21(DE3) RIL, purified (Ni-NTA, TEV digestion, Sephacryl S-100 HR SEC); selenomethionine-substituted protein from E. coli B834(DE3); not shown: (His)6, N-terminal, cleaved; MBP, N-terminal, cleaved
In the case of B2, the “stoichiometry N” value [3] is reported as 2.

B3: Cep63 (440–490) (L445A, A456K, L463K) (domain or fragment, human, UniProt Q96MT8 440-490, looked up)
chain: B2 chain with L6A, A17K, L24K
notes: Cep63, human, residues 440–490 with L445A, A456K, L463K; also called AKK; pKM6657; source: E. coli BL21(DE3) RIL, purified (Ni-NTA, TEV digestion, Sephacryl S-100 HR SEC); not shown: (His)6, N-terminal, cleaved; MBP, N-terminal, cleaved
B3: binds [4].

B4: His-Cep63 (424–541) (domain or fragment)
chain: LHQRDITIASTKGSSSDMEKRLRAEMQKAEDKAVEHKEILDQLESLKLENRHLSEMVMKLELGLHECSLPVSPLGSIATRFLEEEELRSHHILERLDAHIEELKRESEKTVRQFTALK
Work on B4 yielded a Kd (Cep152 (1205–1295)) of under 0.06 µM.
